Measured values reported in patent US20110319318A1, “COVALENT MILK PROTEIN/ISOTHIOCYANATE COMPLEXES” (NESTEC S.A., priority 2009, published 2011).

Tests used:
[1] = Foaming properties (Foamscan); assay type: physicochemical; conditions: for foam volume stability: over 30 min
Method: Foaming properties of samples (prepared as described in example 1) were evaluated using the standardized method proposed by Guillerme C, Loisel W, Bertrand D, Popineau Y. Study of foam stability by video image analysis: Relationship with the quantity of liquid in the foams. 1993. J Text Stud, 24, 287-302. The apparatus used was a standard version of the Foamscan™ from Teclis-ITConcept (Longessaigne, France). The principle of the method is to foam a definite quantity of protein dispersion by infusing gas into it through a glass frit of specific porosity. The gas flow and duration of the bubbling are controlled. The foam is generated on the surface of the liquid and it rises in the glass tube where its height is followed in real time by image analysis using a charged-coupled device (CCD) camera. The amount of liquid incorporated into the foam and the drainage rate are followed by measuring the conductivity as a function of time and with reference to the conductivity of the solution before bubbling, in the cuvette (with the remaining liquid phase), and at electrodes placed at different heights of the tube (Kato A, Takahashi A, Matsudomi N, Kobayashi K. Determination of foaming properties of proteins by conductivity measurements. 1983. J Food Sci, 48, 62-65).
BLG-AITC conjugates were prepared as described in example 1 and then acidified to pH 7.0 or 4.0 by adding 1M HCl. The amount of HCl added was ˜0.02% and ˜0.8% of the total volume, for neutral and acidic pH adjustment, respectively. 12 mL of each sample at both pHs, was put into 12 mL-glass vial and heated on 85° C. for 15 min, in addition to 5 min necessary for temperature in the vial to reach 85° C. The heating was done without agitation, in a temperature-controlled water-bath. Subsequently, samples were let to cool down at room temperature over 40 minutes under a mild agitation, and then put on ice until further analysis.
A volume of 20 mL of the sample solution (non-heated and heated BLG-AITC covalent complexes with the AITC to BLG molar ratio 0.5, 1 and 2, at both pH), diluted to 55 μM BLG (0.1%) was placed in the cuvette. Nitrogen at the flow rate 80 mL/min was bubbled in through the glass frit of porosity 4, creating the air bubbles with diameters between 10 and 16 μm. This flow rate allowed efficient foam formation before strong gravitational drainage occurred. The bubbling was stopped when the foam volume of 110 cm^3 was reached. Subsequently, foam capacity (FC=volume of foam/volume of gas injected) and foam expansion (FE=volume of the foam/volume of the liquid in the foam) were calculated. Foam volume and liquid stability (time for the foam to drain 50% of its initial liquid content) were followed over next 30 min at 24±1° C.

Staphylococcus aureus = test: Antimicrobial activity, optical density decrease at 600 nm; assay type: cell-based; conditions: 0.5 mM BLG, AITC/BLG molar ratio 1 to 20, 24 h at 37° C.
Method: (§1) Antimicrobial properties of BLG-AITC conjugates were tested against Escherichia coli and Staphylococcus aureus. Single colony of each bacteria strain, previously grown on agar plates, was inoculated into 10 mL of brain-heart infusion (BHI) broth and incubated 24 h at 37° C. under agitation. For antimicrobial properties evaluation these pre-cultures were diluted 100 times in BHI broth.
(§2) BLG-AITC covalent complexes, with the AITC to BLG molar ratio 1, 2, 10 and 20, were prepared as described in the example 1 with the difference that 200 mM AITC solution was prepared in DMSO. Samples were subsequently acidified to pH 7.0 and then concentrated 5 times by using Centrisart® I centrifugal ultrafiltration units with cellulose triacetate ultrafilters having the molecular weight cut-off of 10 kDa (Sartorious, Germany) according to manufactures instructions.
(§3) An aliquot of 600 μL of concentrated samples was added to 2.4 mL of BHI broth containing E. coli or S. aureus to reach the starting concentrations of BLG (0.5 mM) and corresponding concentration of AITC. Controls in which 600 μL of 5% DMSO or water was added were prepared as well. Test tubes with sample mixtures were then incubated 24 h at 37° C. under stirring. Subsequently, optical densities (OD) of samples were measured at 600 nm. To evaluate the inhibition of bacteria growth, ODs of samples containing BLG-AITC covalent complexes were normalized by OD of the corresponding control and are expressed as the OD decrease in percentage.

Escherichia coli = test: as above; assay type: cell-based; conditions: 0.5 mM BLG, AITC/BLG molar ratio 1 to 20; 24 h at 37° C.; OD 600 nm
Method: as §1, §2, §3

[2] = Emulsifying properties, 10% sunflower oil-in-water emulsions, stability on storage; assay type: physicochemical; conditions: 10% sunflower oil; molar ratio 1:1, 0.25 mM BLG; 33 days of storage at 4° C.; neutral or acidic pH, with or without heat treatment
Method: Emulsifying properties of BLG-AITC conjugates, non-heated and heated at pH 7.0 and 4.0 (prepared as described in examples 1 and 2), were evaluated by preparing emulsions containing 10% (w/w) of “high oleic” sunflower oil (Oleifico SABO, Manno, Switzerland). Samples containing BLG-AITC conjugates in the equimolar ratio were diluted to 0.25 mM BLG and mixed with oil in a pyrex tube (D 25 mm, V 35 mL) to a final weight of 20 g. They were pre-homogenized using an Ultra Turrax® T25 equipped with a S25N-10G dispersing head (IKA-Werke, Staufen, Germany) rotating at 16,000 rpm for 1 minute. Homogenization of emulsions was completed using an ultrasonic processor (Hielscher UP400S, power 400 W, frequency 24 kHz) and a sonotrode (diameter 7 mm, approx. length 100 mm, titanium) at room temperature for 75 seconds and 75% amplitude of the ultrasound maximal power. This emulsification time was enough to disperse the oil in small droplets and to avoid excessive heating of the sample.
Stability of emulsions to creaming and flocculation was followed over 33 days of storage at 4° C.

BLG-AITC covalent complexes: covalent complexes of β-lactoglobulin and allyl isothiocyanate, various AITC to BLG molar ratios
improvement of foam liquid stability (more time stability) ([1]; foam produced in acidic conditions versus pH 7.0): more than 30%
foam volume stability ([1]; pH 4.0, without or with heating): more volume stable than at pH 7.0
foam volume stability ([1]; pH 7.0, with or without heat treatment): volume stable foams
sensitivity compared with E. coli (Staphylococcus aureus): more sensitive
reduction of optical density (OD) (Staphylococcus aureus; OD 600 nm): able to reduce the optical density
reduction of optical density (OD) (Escherichia coli): able to reduce the optical density
stability of emulsions to creaming and flocculation [2]: very stable emulsions
